Holding throughout (experiment): EMSA
Background: In EMSA bound probe runs differently from free probe, usually more slowly.

One data set has as its target T1, Flag-AS160 (human, UniProt O60343 1-1298).
T1 sequence: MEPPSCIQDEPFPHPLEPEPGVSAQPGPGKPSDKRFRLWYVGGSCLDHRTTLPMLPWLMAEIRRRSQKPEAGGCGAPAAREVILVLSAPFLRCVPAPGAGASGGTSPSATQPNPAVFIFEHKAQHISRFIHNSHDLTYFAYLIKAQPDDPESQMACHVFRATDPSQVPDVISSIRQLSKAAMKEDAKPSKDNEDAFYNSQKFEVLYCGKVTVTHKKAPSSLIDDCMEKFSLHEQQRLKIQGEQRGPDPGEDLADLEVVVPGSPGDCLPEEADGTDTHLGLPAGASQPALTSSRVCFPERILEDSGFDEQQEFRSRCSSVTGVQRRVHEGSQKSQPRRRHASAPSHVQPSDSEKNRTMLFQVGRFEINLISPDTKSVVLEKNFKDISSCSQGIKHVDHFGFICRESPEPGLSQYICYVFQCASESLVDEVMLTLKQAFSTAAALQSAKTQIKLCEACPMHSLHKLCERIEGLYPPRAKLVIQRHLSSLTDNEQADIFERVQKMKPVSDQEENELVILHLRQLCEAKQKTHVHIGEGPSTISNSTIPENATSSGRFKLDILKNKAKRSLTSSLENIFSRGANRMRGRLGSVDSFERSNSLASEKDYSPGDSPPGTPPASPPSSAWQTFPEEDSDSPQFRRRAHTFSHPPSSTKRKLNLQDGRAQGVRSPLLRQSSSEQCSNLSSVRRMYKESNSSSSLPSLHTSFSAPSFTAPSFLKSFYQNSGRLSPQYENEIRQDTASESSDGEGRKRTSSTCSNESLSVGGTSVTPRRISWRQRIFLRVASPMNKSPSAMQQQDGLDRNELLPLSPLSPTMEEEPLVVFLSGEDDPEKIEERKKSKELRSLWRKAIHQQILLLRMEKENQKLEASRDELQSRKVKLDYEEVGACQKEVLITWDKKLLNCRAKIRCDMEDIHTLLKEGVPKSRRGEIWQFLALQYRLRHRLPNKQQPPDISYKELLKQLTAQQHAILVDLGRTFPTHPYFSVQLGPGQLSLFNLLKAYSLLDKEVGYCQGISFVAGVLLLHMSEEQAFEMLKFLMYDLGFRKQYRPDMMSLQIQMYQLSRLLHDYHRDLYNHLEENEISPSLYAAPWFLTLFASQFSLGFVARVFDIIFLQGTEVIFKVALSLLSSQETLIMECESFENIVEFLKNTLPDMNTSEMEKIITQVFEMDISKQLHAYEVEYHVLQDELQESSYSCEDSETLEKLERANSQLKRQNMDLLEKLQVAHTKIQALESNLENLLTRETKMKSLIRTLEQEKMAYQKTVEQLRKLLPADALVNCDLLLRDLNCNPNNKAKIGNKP

For data set [1], the target named is T2, GST-STAT3;Flag-AS160 (human;human, UniProt P40763;O60343 1-770;1-1298, |).
T2 sequence (P40763 whole entry, one chain of several): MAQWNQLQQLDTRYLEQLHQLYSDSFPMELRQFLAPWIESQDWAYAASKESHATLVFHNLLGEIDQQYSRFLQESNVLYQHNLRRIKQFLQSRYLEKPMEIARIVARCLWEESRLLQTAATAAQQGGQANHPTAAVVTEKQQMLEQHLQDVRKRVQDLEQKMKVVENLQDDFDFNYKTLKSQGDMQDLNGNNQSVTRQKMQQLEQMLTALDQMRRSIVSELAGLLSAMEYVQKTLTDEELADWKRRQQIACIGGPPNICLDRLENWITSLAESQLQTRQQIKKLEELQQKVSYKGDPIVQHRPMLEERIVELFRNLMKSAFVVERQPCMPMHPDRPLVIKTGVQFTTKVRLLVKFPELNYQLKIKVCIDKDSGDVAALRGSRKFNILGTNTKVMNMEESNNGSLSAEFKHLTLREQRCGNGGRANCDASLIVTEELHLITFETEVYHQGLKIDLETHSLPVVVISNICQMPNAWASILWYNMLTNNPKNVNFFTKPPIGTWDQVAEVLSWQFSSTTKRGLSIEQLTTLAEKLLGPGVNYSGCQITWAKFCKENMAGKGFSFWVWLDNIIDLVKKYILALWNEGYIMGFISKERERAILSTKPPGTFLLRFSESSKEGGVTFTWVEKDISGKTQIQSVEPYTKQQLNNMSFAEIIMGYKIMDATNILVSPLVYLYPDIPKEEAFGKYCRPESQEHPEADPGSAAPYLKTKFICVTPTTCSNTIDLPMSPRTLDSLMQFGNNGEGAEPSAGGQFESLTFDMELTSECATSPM
A further data set deals with GST-STAT3 (human, UniProt P40763 1-770).
Sequence of GST-STAT3 (P40763 whole entry): as the sequence (P40763 whole entry, one chain of several) above
The target of data set [2] is T2, GST-STAT3;Flag-AS160. This is another data set of the same source.

B1: Pax7 promoter bind site 2 probe (dsDNA)
DNA 1: ATCCCATCCCCGGAAGCCCTCCCATCCCCGGAAGCCCTCCCATCCCCGGAAGCCC
DNA 2: GGGCTTCCGGGGATGGGAGGGCTTCCGGGGATGGGAGGGCTTCCGGGGA
B1: the binding result in the data set with Flag-AS160 was “no binding”; in the data set with GST-STAT3;Flag-AS160 [1], “binds”; with GST-STAT3, “binds”.

B2: Myod1 promoter bind site 3 probe (dsDNA)
DNA 1: CAGATATTCTCTGAGCCATTCCCAGATGAGATATTCTCTGAGCCATTCCCAGATGG
DNA 2: CCATCTGGGAATGGCTCAGAGAATATCTCATCTGGGAATGGCTCAGAGAAT
Regarding B2, the binding result was “no binding” with Flag-AS160, “binds” in the data set with GST-STAT3;Flag-AS160 [1] and “binds” in the data set with GST-STAT3.

B3: Myod1 promoter bind site 1 probe (dsDNA)
DNA 1: ATTGGATTCCTGGCATCCGTTGGATTCCTGGCATCCGTTGGATTCCTGGCATCCG
DNA 2: CGGATGCCAGGAATCCAACGGATGCCAGGAATCCAACGGATGCCAGGAA
As for B3, the binding result with Flag-AS160 is recorded as “no binding”; in the data set with GST-STAT3;Flag-AS160 [1] it was “binds”; in the data set with GST-STAT3, “binds”.

B4: Classical STAT3 motif probe (dsDNA)
DNA 1: GATCCTTCTGGGAATTCCGATCCTTCTGGGAATTCCGATCCTTCTGGGAATTCC
DNA 2: GGAATTCCCAGAAGGATCGGAATTCCCAGAAGGATCGGAATTCCCAGA
Regarding B4, the binding result in the data set with Flag-AS160 is listed as “no binding”; with GST-STAT3, “binds”. The molecule further returned a binding signal with GST-STAT3;Flag-AS160 [2] of more than 2 fold vs STAT3 alone.

B5: Myod1 promoter bind site 2 probe (dsDNA)
DNA 1: ACATTGTTCCTGGATATGACATTGTTCCTGGATATGACATTGTTCCTGGATATGA
DNA 2: TCATATCCAGGAACAATGTCATATCCAGGAACAATGTCATATCCAGGAA
B5: the binding result is on record as “no binding” with Flag-AS160, “binds” with GST-STAT3;Flag-AS160 [1] and “binds” with GST-STAT3.

B6: Pax7 promoter bind site 3 probe (dsDNA)
DNA 1: AATTCTTCCGGGGATGTCAATTCTTCCGGGGATGTCAATTCTTCCGGGGATGTC
DNA 2: GACATCCCCGGAAGAATTGACATCCCCGGAAGAATTGACATCCCCGGA
Take B6: the values for the binding result with Flag-AS160, with GST-STAT3;Flag-AS160 [1] and with GST-STAT3 were “no binding”, “binds” and “binds”, respectively.

B7: Pax7 promoter bind site 1 probe (dsDNA)
DNA 1: ATATGTTTACAGAAAGACATATGTTTACAGAAAGACATATGTTTACAGAAAGACA
DNA 2: TGTCTTTCTGTAAACATATGTCTTTCTGTAAACATATGTCTTTCTGTAA
Regarding B7, the binding result with Flag-AS160 is listed as “no binding”; with GST-STAT3;Flag-AS160 [1], “binds”; with GST-STAT3 it was “binds”.

Values taken from paper PMC12528421.
